# Assays:
# [1] = biological target: FLAG-AKT^T308A (UniProt P31749); experiment: co-IP; SK-Br3 cells transfected with FLAG-tagged AKT constructs, starved with U0126, treated with TZ 20 min, cross-linked with DSP; anti-FLAG magnetic beads, 3 h at 4 °C; Western blot, amounts normalised on precipitated protein and input
# [2] = biological target: FLAG-AKT^T308D (UniProt P31749); experiment: as above
substance,measurement,setting,value
Ser/Thr-protein phosphatase 2A (PP2A)-catalytic subunit beta isoform (from UniProt P62714 1-309) (enzyme),percent co-precipitated against wt AKT,[1],60%
same,percent co-precipitated against wt AKT,[2],60%

# — paper PMC7547737
